T1: HCMV viral Fcγ receptor gp34 (residues 24-182), soluble, strep and FLAG tags (human cytomegalovirus AD169, UniProt P16809 24-182)
T1 construct: range 24-182
T1 sequence: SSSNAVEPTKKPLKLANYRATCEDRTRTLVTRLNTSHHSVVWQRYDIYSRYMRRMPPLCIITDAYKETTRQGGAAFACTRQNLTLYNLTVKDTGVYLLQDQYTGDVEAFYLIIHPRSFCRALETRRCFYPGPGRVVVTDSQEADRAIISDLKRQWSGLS


Legend:
[1] = biological target: T2, human FcγRIIIA, FLAG-tagged (human, UniProt P08637 17-208); experiment: flow cytometry, yeast display of human IgG1 Fc, FcgR3A labeled with PE
T2 construct: also called FcgRIIIa; FcγIIIA
T2 sequence (P08637 17-208 limits assumed): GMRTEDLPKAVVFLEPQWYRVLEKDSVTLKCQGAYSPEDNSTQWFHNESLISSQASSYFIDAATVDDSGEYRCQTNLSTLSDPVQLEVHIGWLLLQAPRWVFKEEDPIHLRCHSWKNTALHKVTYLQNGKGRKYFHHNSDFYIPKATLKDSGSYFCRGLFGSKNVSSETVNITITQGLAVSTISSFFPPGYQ

[2] = biological target: T1, HCMV viral Fcγ receptor gp34 (residues …); experiment: flow cytometry, yeast display of human IgG1 Fc, Gp34 plus anti-FLAG PE
human FcRn, FLAG-tagged = human FcRn, FLAG-tagged (human, UniProt P55899 24-297; P61769 21-119); experiment: flow cytometry, yeast display of human IgG1 Fc, FcRn at low pH, PE detection
human FcRn, FLAG-tagged, sequence (P55899 24-297 limits assumed, chain 1 of 2): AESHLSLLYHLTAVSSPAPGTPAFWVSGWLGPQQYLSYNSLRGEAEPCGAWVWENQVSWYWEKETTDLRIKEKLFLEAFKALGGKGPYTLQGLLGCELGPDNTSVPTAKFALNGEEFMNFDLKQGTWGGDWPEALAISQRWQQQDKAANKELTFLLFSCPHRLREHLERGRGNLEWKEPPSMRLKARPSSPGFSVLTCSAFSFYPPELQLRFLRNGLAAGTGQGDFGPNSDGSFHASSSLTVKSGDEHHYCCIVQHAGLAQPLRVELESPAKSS
human FcRn, FLAG-tagged, sequence (P61769 21-119 limits assumed, chain 2 of 2): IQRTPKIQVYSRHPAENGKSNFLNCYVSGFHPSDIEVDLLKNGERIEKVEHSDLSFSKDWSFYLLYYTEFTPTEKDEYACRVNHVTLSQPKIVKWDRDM

Row | Binder | number printed in the receptor-PE gate (share of yeast cells; unit not given) [1] | binding result [2] | number printed in the receptor-PE gate (share of yeast cells; unit not given) (human FcRn, FLAG-tagged)
1 | 3S-13 (other, member of group m65; also called gp34 escape variant 3S-13 of human IgG1 Fc, K334E, K338I) human IgG1 Fc displayed on yeast as an Aga-2 fusion protein: CDKTHTCPPCPAPELLGGPSVFLFPPKPKDTLMISRTPEVTCVVVDVSHEDPEVKFNWYVDGVEVHNAKTKPREEQYNSTYRVVSVLTVLHQDWLNGKEYKCKVSNKALPAPIEETISIAKGQPREPQVYTLPP | 43.4 | no binding | 
2 | 3S-12 (other, member of group m65; also called gp34 escape variant 3S-12 of human IgG1 Fc, S337F, E345K, T350I) human IgG1 Fc displayed on yeast as an Aga-2 fusion protein: CDKTHTCPPCPAPELLGGPSVFLFPPKPKDTLMISRTPEVTCVVVDVSHEDPEVKFNWYVDGVEVHNAKTKPREEQYNSTYRVVSVLTVLHQDWLNGKEYKCKVSNKALPAPIEKTIFKAKGQPRKPQVYILPPSRDELTKNQVSLTCLVKGFYPSDIAVEWESNGQPENNYKTTPPVLDSDGSFFLYSKLTVDKSRWQQGNVFSCSVMHEALHNHYTQKSLSLSPGK | 39.9 | no binding | 
3 | 4-7 (other, also called gp34 escape variant 4-7 of human IgG1 Fc, H268L, E294K, Q311L, K334E) human IgG1 Fc displayed on yeast as an Aga-2 fusion protein: CDKTHTCPPCPAPELLGGPSVFLFPPKPKDTLMISRTPEVTCVVVDVSLEDPEVKFNWYVDGVEVHNAKTKPREKQYNSTYRVVSVLTVLHLDWLNGKEYKCKVSNKALPAPIEETISKAKGQPREPQVYTLPPSRDELTKNQVSLTCLVKGFYPSDIAVEWESNGQPENNYKTTPPVLDSDGSFFLYSKLTVDKSRWQQGNVFSCSVMHEALHNHYTQKSLSLSPGK | 54.2 | no binding | 34.3

Source: patent US20220144916A1 (University of Texas, published 2022)
